In the Immune Epitope Database (IEDB) one finds IC50 data, which are given here for 10 sequences.

This experiment addresses HLA-A*02:01. The experiment can be described thus: IEDB peptide-MHC binding, purified MHC/competitive/radioactivity; ≥ and ≤ were set here for values at or beyond the usual limits of such assays. The conditions noted are these: source organism: Toxoplasma gondii GT1.
What is called IC50 is the midpoint of a concentration-inhibition curve. As for FVLELEPEWTV, the IC50 was 10 nM. Next, HLMDEAVEV: 500 nM; ALDINLPNV: 500 nM. Next, VMSELEFYL: 100 nM; YLSPIASPLL: 100 nM. As to GLAETEVPV, the IC50 is 500 nM. The result for ALAALAPSLEV reads 1000 nM; that for YLFKEGVIVV, 500 nM; that for MLYAGAPTTV, 100 nM. The result for LLSDLSVRL reads 500 nM.
